Measured values published in patent US8940871 (University of California, dated 2015).

Tests used:
[1] = biological target: PSCA (form used in Biacore not stated) (UniProt O43653); test: Biacore, apparent affinity
[2] = biological target: PSCA on cells (PSCA-transfected B-cell line, LNCaP prostate cancer cells, SKW-PSCA+ cells) (human) (UniProt O43653); test: immunoreactivity of radioiodinated diabody
[3] = biological target: T1, purified PSCA-Fc (UniProt O43653 12-86); test: competition ELISA, wells coated with PSCA-Fc
T1 construct: The construct is described only by a literature citation; not shown: Fc part not described
T1 sequence (looked up): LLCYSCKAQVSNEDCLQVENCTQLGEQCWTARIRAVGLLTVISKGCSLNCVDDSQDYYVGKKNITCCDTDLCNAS
Procedure: To examine the structural characteristics of the 2B3 minibody, SDS-PAGE was conducted under reducing and non-reducing conditions. The minibody migrated with a MW of ~47 kDa under reducing conditions and ~95 kDa under non-reducing (FIG. 2). […] The minibody's apparent affinity with respect to its intact antibody counterpart and the original mouse monoclonal antibody (1G8), was determined by competition ELISA.
PSCA relative binding affinity for the minibodies was determined by competition ELISA in which microtiter plate wells were coated with purified PSCA-Fc (Z Gu, T. Olafsen et al. 2006).

[4] = biological target: T2, PSCA (form used in Biacore not stated) (UniProt O43653 12-86, limits assumed); test: method not stated; humanized antibody compared with murine 1G8
T2 construct: The antigen preparation for the Biacore measurements and for the 4-fold statement is not described; also called prostate stem cell antigen
T2 sequence (looked up): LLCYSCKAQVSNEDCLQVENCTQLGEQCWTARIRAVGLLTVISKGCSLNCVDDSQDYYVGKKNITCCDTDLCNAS

[5] = biological target: T2, PSCA (form used in Biacore not stated); test: Biacore, apparent affinity; parental diabody, not affinity matured

With “affinity matured 2B3 anti-PSCA diabody (scFv dimer, eight amino acid linker)” the Kd [1] was 1.89 nM and the immunoreactivity [2] was 22%.

B1: humanized anti-PSCA minibody (2B3 scFv-CH3 dimer) (other)
chain: DIQLTQSPSSLSASVGDRVTITCSASSSVRFIHWYQQKPGKAPKRLIYDTSKLASGVPSRFSGSGSGTDFTLTISSLQPEDFATYYCQQWSSSPFTFGQGTKVEIKGSTSGGGSGGGSGGGGSSEVQLVESGGGLVQPGGSLRLSCAASGFNIKDYYIHWVRQAPGKGLEWVAWIDPENGDTEFVPKFQGRATISADTSKNTAYLQMNSLRAEDTAVYYCKTGGFWGQGTLVTVSSEPKSCDKTHTCPPCGGGSSGGGSGGQPREPQVYTLPPSRDELTKNQVSLTCLVKGFYPSDIAVEWESNGQPENNYKTTPPVLDSDGSFFLYSKLTVDKSRWQQGNVFSCSVMHEALHNHYTQKSLSLSPGK
notes: Covalent dimer of about 95 kDa; also called 2B3 minibody; parental minibody
For B1, the “fold lower affinity than the intact 2B3 antibody” value [3] was roughly 2 fold and the “fold lower relative affinity than the murine antibody (1G8)” value [3] was 9.2 fold.

B2: humanized 2B3 anti-PSCA antibody (intact) (antibody, V domains shown)
VH: EVQLVESGGGLVQPGGSLRLSCAASGFNIKDYYIHWVRQAPGKGLEWVAWIDPENGDTEFVPKFQGRATISADTSKNTAYLQMNSLRAEDTAVYYCKTGGFWGQGTLVTVSS
VL: DIQLTQSPSSLSASVGDRVTITCSASSSVRFIHWYQQKPGKAPKRLIYDTSKLASGVPSRFSGSGSGTDFTLTISSLQPEDFATYYCQQWSSSPFTFGQGTKVEIK
notes: Intact humanized antibody; also called intact 2B3 antibody; humanized 2B3 antibody
For B2, the “fold reduction in affinity (against murine 1G8)” value [4] was 4 fold.

B3: parental 2B3 anti-PSCA diabody (scFv dimer, eight amino acid linker) (scFv)
scFv: DIQLTQSPSSLSASVGDRVTITCSASSSVRFIHWYQQKPGKAPKRLIYDTSKLASGVPSRFSGSGSGTDFTLTISSLQPEDFATYYCQQWSSSPFTFGQGTKVEIKGGGSGGGSEVQLVESGGGLVQPGGSLRLSCAASGFNIKDYYIHWVRQAPGKGLEWVAWIDPENGDTEFVPKFQGRATISADTSKNTAYLQMNSLRAEDTAVYYCKTGGFWGQGTLVTVSS
notes: also called parental diabody; 2B3 diabody
B3 was tested, and the Kd [5] was 5.41 nM.
